Measured values published in patent US20120328589A1.

Target: mannose receptor (on NR8383 rat alveolar macrophages) (rat)
Assay: cell-based or functional assay

| Substance | uptake by rat alveolar macrophages in the absence of mannan (GCD activity in cell lysate, pNP-G assay) [ng/mL lysate] | uptake by rat alveolar macrophages, reduction by mannan (GCD activity in cell lysate, pNP-G assay) [%] |
| --- | --- | --- |
| Plant recombinant human glucocerebrosidase (prh-GCD) (from UniProt P04062 40-536) (enzyme) | 333 | 90 |
| prh-GCD cross-linked with bis-NHS-PEG5 at a 50:1 bis-NHS-PEG5:GCD molar ratio (from UniProt P04062 40-536) (enzyme) | 200 | 85 |
